B1: Antibody 128 (antibody, human IgG1, kappa)
heavy chain: not shown
light chain: DIQMTQSPSSVSATVGDRVTITCRASQSISINLHWYQQKPGKAPKLLIYFASQSISGVPSRFSGSGSGTDFSLTINSLQPEDFATYYCQQSNSFPLTFGGGTKVEIKRTVAAPSVFIFPPSDEQLKSGTASVVCLLNNFYPREAKVQWKVDNALQSGNSQESVTEQDSKDSTYSLSSTLTLSKADYEKHKVYACEVTHQGLSSPVTKSFNRGEC
B2: Antibody 130 (antibody, human IgG1, kappa)
heavy: not shown
light: DIQMTQSPSSVSASPGDRVTITCRASQSISINLHWYQQKPGKAPKLLIYFASQSISGVPSRFSGSGSGTDFSLTINSLQPEDFATYYCQQSNSFPLTFGGGTKVEIKRTVAAPSVFIFPPSDEQLKSGTASVVCLLNNFYPREAKVQWKVDNALQSGNSQESVTEQDSKDSTYSLSSTLTLSKADYEKHKVYACEVTHQGLSSPVTKSFNRGEC
B3: scFv AQ-G10 (scFv)
scFv: QVQLVQSGAEVEKPGASVKVSCKASGYTFTDYYLHWVRQAPGQGLEWMGWIDPENGDTEYAPKFQGGVTMTTDTSTSTAYMELRSLRSDDTAVYYCNANKELRYFDVWGQGTMVTVSSGGGGSGGGGSGGGGSEIVMTQSPATLSVSPGERATLSCRASQSISINLHWYQQKPGQAPRLLIYFASQSISGIPARFSGSGSGTEFTLTISSLQSEDFAVYYCQQSNSFPLTFGGGTKVEIKR
notes: scFv-80 variant: VH K12E, R66G; not shown: proprietary C-terminal FLAG tag
B4: scFv AX-G4 (scFv)
scFv: QVQLVQSGAEVKKPGASVKVSCKASGYTFTDYYLHWVRQAPGQGLEWMGWIDPENGDTEYAPKFQGRVTMTTDTSTSTAYMELRSLRSDDTAVYYCNANKELRYFDVWGQGTMVTVSSGGGGSGGGGSGGGGSEIVMTQSPATLSVSPGERATLSCRAPQSISINLHWYQQKPGQAPRLLIYFASQSISGIPARFSGSGSGTEFTLTISSLQSEDFAVYYCQQSNSFPLTFGGGTKVEIKR
notes: scFv-80 variant: VL S26P; not shown: proprietary C-terminal FLAG tag
B5: scFv AU-G9 (scFv)
scFv: QVQLVQSGAEVKKPGASVKVSCKASGYTFTDYYLHWVRQAPGRGLEWMGWIDPENGDTEYAPKFQGRVTMTTDTSTSTAYMELRSLRSDDTAVYYCNANKELRYFDVWGQGTMVTVSSGGGGSGGGGSGGGGSEIVMTQSPATLSVSPGERATLSCRASQSISINLHWYQQKPGQAPRLLIYFASQSTSGIPARFSGSGSGTEFTLTISSLQSEDFAVYYCQQSNSFPLTFGGGTKVEIKR
notes: scFv-80 variant: VH Q43R; VL I55T; not shown: proprietary C-terminal FLAG tag
B6: scFv AV-F11 (scFv)
scFv: QVQLVQSGAEVKKPGASVKVSCKASGYTFTDYYLHWVRQAPGQGLEWMGWIDPENGDTEYAPKFQGRVTMTTDTSTSTAYMELRSLRSDDTAVYYCNANKELRYFDVWGQGTMVTVPSGGGGSGGGGSGGGGSEIVMTQSPATLSVSPGERATLSCRASQSISINLHWYQQKPGQAPRLLIYFASQSISGIPARFSGSGSGTEFTLTTSSLQSEDFAVYYCQQSNSFPLTFGGGTKVEIKR
notes: scFv-80 variant: VH S112P; VL I75T; not shown: proprietary C-terminal FLAG tag
B7: scFv BB-A9 (scFv)
scFv: QVQLVQSGAEVKKPGASVKVSCKASGYAFTDYYLHWVRQAPGQGLEWMGWIDPENGDTEYAPKFQGRVSMTTDTSTSTAYMELRSLRSDDTAVYYCNANKELRYFDVWGQGTMVTVSSGGGGSGGGGSGGGGSEIVMTQSPATLSVSPGERATLSCRASQSISINLHWYQQKPGQAPRLLIYFASQSISGIPARFSGSGSGTEFTLTISSLQSEDFAVYYCQQSNSFPLTFGGGTKVEIKR
notes: scFv-80 variant: VH T28A, T68S; not shown: proprietary C-terminal FLAG tag
B8: scFv CE-B1 (scFv)
scFv: QVQLVQSGAEVKKPGASVKVSCKASGYTLTDYYLHWVRQAPGQGLEWMGWIDPENGDTEYAPKFQGRVTMTTDTSTSTAYMELRSLRSDDTAVYYCNANKELRYFDVWGQGTMVTVSSGGGGSGGGGSGGGGSEIVMTQSPATLSVSPGERATLSCRASQSISINLHWYQQKPGQAPRLLIYFASQSISGIPARFSGSGSGTEFTLTISSLQSEDFAVYYCQQSNSFPLTFGGGTKVEIKR
notes: scFv-80 variant: VH F29L; not shown: proprietary C-terminal FLAG tag
B9: scFv CR-B1 (scFv)
scFv: QVQLVQSGAEVKKPGASVKVSCKASGYTFTDYYLHWVRQAPGQGLEWMGWIDPENGDTEYAPKFQGRVTMTTDTSTSTAYMELRSLRSEDTAVYYCNANKELRYFDVWGQGTMVTVSSGGGGSGGGGSGGGGSEIVMTQSPATLSVSPGERATLSCRASQSISINLHWYQQKPGQAPRLLIYFASQSISGIPARFSGSGSGTEFTLTISSLQSEDFAVYYCQQSNSFPLTFGGGTKVEIKR
notes: scFv-80 variant: VH D85E; not shown: proprietary C-terminal FLAG tag
B10: scFv BU-B1 (scFv)
scFv: QVQLVQSGAEVKKPGASVKVSCKASGYTFTDYYMHWVRQAPGQGLEWMGWIDPENGDTEYAPKFQGRVTMTTDTSTSTAYMELRSLRSDDTAVYYCNANKELRYFDVWGQGTMVTVSSGGGGSGGGGSGGGGSEIVMTQSPATLSVSPGERATLSCRASQSISINLHWYQQKPGQAPRLLIYFASQSISGIPARFSGSGSGTEFTLTISSLQSEDFAVYYCQQSNSFPLTFGGGTKVEIKR
notes: scFv-80 variant: VH L34M; not shown: proprietary C-terminal FLAG tag

Experiments:
human IL-23 [1] = biological target: T1, human IL-23 (human, UniProt P29460 23-328; Q9NPF7 20-189); assay: ELISA, coated IL-23
T1 construct: Recombinant (Ebioscience); HIS-tagged in flow cytometry, biotinylated in some assays; also called hIL-23; rhIL-23
T1 sequence 1: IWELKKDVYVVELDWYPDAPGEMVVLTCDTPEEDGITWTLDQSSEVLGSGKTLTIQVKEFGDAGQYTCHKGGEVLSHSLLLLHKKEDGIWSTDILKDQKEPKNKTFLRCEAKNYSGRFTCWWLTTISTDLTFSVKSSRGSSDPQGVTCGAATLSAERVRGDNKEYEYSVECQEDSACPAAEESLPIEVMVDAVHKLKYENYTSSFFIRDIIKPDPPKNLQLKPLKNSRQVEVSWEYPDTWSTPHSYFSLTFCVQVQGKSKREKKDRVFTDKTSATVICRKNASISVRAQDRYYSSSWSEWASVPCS
T1 sequence 2: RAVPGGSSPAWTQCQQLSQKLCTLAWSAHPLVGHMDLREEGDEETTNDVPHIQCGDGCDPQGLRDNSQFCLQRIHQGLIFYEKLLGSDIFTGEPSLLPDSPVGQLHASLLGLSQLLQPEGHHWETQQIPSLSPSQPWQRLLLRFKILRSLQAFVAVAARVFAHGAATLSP
Outline: (§1)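 Binding values are absorbance readings. After cytokine (1 μg/mL, carbonate buffer pH 9.6) was coated onto Maxisorp plates overnight at 4° C and the plates were blocked with 1% BSA in PBS, antibody titrations were bound for 1 hour at 25° C and detected with HRP-linked goat anti-human IgG or anti-murine immunoglobulin (1:2000). Color from TMB, stopped with 1M HCl, was read at 450 nm with 620 nm as reference.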

human IL-12 [2] = biological target: T2, human IL-12 (human, UniProt P29460 23-328; P29459 23-219); assay: ELISA, coated IL-12
T2 construct: Recombinant (Peprotech); FLAG-tagged IL-12 in the flow cytometry assays, biotinylated in the IL-12Rβ2 assay; also called hIL-12
T2 sequence 1: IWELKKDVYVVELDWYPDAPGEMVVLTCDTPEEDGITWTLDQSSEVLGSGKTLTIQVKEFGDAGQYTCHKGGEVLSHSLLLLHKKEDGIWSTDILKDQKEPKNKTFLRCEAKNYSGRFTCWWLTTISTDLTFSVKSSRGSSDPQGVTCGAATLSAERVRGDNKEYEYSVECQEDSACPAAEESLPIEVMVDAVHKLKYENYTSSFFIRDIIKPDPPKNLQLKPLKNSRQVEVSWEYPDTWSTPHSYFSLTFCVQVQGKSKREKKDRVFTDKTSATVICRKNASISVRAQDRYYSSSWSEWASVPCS
T2 sequence 2: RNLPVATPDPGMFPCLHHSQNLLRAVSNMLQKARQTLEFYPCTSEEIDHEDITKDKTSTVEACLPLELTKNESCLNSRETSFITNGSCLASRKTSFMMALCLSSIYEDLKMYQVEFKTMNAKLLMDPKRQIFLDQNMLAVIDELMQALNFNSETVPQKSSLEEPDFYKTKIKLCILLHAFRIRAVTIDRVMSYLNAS
Outline: as §1

human IL-23 [3] = biological target: T1, human IL-23; assay: SPR screen, crude scFv captured via FLAG
Protocol: Approximately 6500 individual scFvs recovered from the ribosome display reactions were expressed and screened for binding against IL-23 using a high-throughout SPR assay. The variants were ranked according to the kd and the best variants were sequenced at the nucleic acid level.
High-throughput SPR screening was conducted using a BIAcore A100 biosensor (GE Healthcare). Approximately 10 000 RU of the proprietary FLAG-specific capture molecule was immobilized on a CM5 Series S Sensor chip, using standard amine coupling chemistry on Spots 1 & 5 (outer spots) and 3,000RU to Spots 2 & 4 (inner spots) in each of the four flow cells of the BIAcore A100 Biosensor. The running buffer used was HBS-EP+ (BIAcore) and all interactions measured at 25° C. Crude periplasmic preparations of FLAG-tagged scFvs (prepared as described in the previous paragraph), were diluted two-fold in running buffer before capturing at a flow rate of 5u1/min for 60 sec. Approx. 100RU (on outer spots) and 50RU (on inner spots) of tagged scFv was captured. Following a 2 min stabilization period, IL-23 was passed over all spots of all four flow cells simultaneously at a flow rate of 30u1/min for 120 sec and dissociation monitored for 200 sec. Generated sensorgrams were referenced against the unmodified spot 3 of each flow cell, and fitted using a 1:1 Langmuir equation with R1 set to local to account for varying ligand densities to generate the kₐ, kd and KD values.

human IL-23 [4] = biological target: T1, human IL-23; assay: SPR, purified scFv captured via FLAG
Protocol: (§2) A number of the scFv variants presented in TABLE 4 were selected for full characterization of binding kinetics, encompassing a broad range of mutation profiles and binding affinities. Large-scale protein expressions were carried out for each scFv. The expressed scFvs were purified as monomeric proteins and tested for binding against IL-12 and IL-23 by SPR (TABLE 5).
(§3) Purified scFvs were subjected to full kinetic characterization using a BIAcore T100 biosensor (GE Healthcare). Approximately 10,000 RU of the proprietry FLAG-specific capture molecule was immobilized on a CM5 Series S Sensor chip, using standard amine coupling chemistry in flow cells (FC) 1 and FC2 (or alternatively FC3 and FC4) of the BIAcore T100 Biosensor. The running buffer used was HBS-EP+ (BIAcore) and interactions measured at 30° C. or 35° C. to promote differentiation of scFvs with very similiar kd values. Peak purified FLAG-tagged scFvs (prepared as described in the previous paragraph) were diluted to 10 nM in running buffer, and captured on FC2 at a flow rate of 10 μl/min in order to capture 50 RU of scFv (typically 60 sec was sufficient to capture this level of tagged scFv). After an appropriate stabilization period, the target, IL-12 or IL-23, were passed over FC1 and FC2 at a flow rate of 60 μl/min at concentrations ranging from 81 nM to 0.13 nM (using a five-fold dilution of IL-12) and 81 nM to 1 nM (using a three-fold dilution of IL-23). The contact time for association was 180 sec and dissociation measured for 10 mins for the highest concentration and 300 sec for all other concentrations in the series. The sensorgram data from FC2 was subtracted from FC1 and a buffer only control. The curves were fitted using a 1:1 Langmuir equation to generate the kₐ, kd and KD values.

human IL-12 [5] = biological target: T2, human IL-12; assay: SPR, purified scFv captured via FLAG
Protocol: as §2, §3

Binder	binding result (human IL-23 [1])	binding result (human IL-12 [2])	koff (human IL-23 [3]) [s⁻¹]	Kd (human IL-23 [4]) [nM]	koff (human IL-23 [4]) [s⁻¹]	kon (human IL-23 [4]) [M⁻¹ s⁻¹]	Kd (human IL-12 [5]) [nM]	koff (human IL-12 [5]) [s⁻¹]	kon (human IL-12 [5]) [M⁻¹ s⁻¹]
B1	binds	binds							
B2	binds	binds							
B3			0.00029	0.17	4.9e-05	280000	0.35	0.00052	1.5e+06
B4			0.00036	0.15	5.5e-05	360000	0.14	0.00031	2.3e+06
B5			0.00031	0.13	4.4e-05	340000	0.11	0.00024	2.1e+06
B6			0.00028	0.093	2.5e-05	270000	0.2	0.00033	1.6e+06
B7			0.00045	0.16	4.4e-05	310000	0.12	0.00023	2e+06
B8			0.00028	0.098	3e-05	310000	0.089	0.00018	2e+06
B9			0.00026	0.13	4.1e-05	320000	0.23	0.00044	1.9e+06
B10			0.00029	0.12	3.7e-05	300000	0.12	0.00024	2e+06

From US20110262445A1 (CEPHALON AUSTRALIA, published 2011)
